Experiments:
hemoglobin [1] = assay: Residual hemoglobin-binding capacity of haptoglobin after heat treatment (60° C., 10 hours); type: physicochemical; details: for Residual hemoglobin-binding capacity of haptoglobin after heat treatment: haptoglobin solution of Example 1, 60° C., 10 hours
Protocol: In this example, the relation between the amount used and the stabilizing effects of various stabilizers was examined by measuring the residual hemoglobin-binding capacity of haptoglobin after heat treatment.
The stabilizers used were glycine and alanine as neutral amino acids, and mannitol and glucose as saccharides. Each of the said stabilizers was dissolved in haptoglobin solution in such proportions as shown in Table 7 and then heated at 60° C. for 10 hours. Thereafter, the hemoglobin-binding capacity of the haptoglobin of the solution was measured, and the ratio thereof to the value before heat treatment represented by percentage.
For comparison, the haptoglobin solution without addition of stabilizer was subjected to the same heat treatment as above, and the hemoglobin-binding capacity of haptoglobin of the solution was measured.

hemoglobin [2] = assay: as above; type: physicochemical; details: dialysate of Example 3
[3] = system: arterial blood pressure of the dog; assay: Hypotensive activity (arterial blood pressure of the dog before and after administration); type: in vivo; details: less than 10% evaluated as hypotensive activity negative
Protocol: (§1) The acute toxicity was represented by LD50 measured when the aqueous haptoglobin solution was intravenously injected into mice and rats. The hypotensive activity was represented by the ratio of arterial blood pressure of the dog before and after administration of haptoglobin solution. A ratio less than 10% was evaluated as hypotensive activity negative. The measurement of HB-Ag was made by the radioimmunoassay method (Sadatake Kato et al.: Japanese Patent Publication No. 49,919/73) using Ausria-125 kit, products of Abbott Co.

Mice = assay: Acute toxicity, LD50, intravenous, mice; type: in vivo
Protocol: as §1

Rats = assay: Acute toxicity, LD50, intravenous, rats; type: in vivo
Protocol: as §1

HB-Ag = HB-Ag measurement by radioimmunoassay (Ausria-125 kit); set-up: species or system hepatitis B virus
Protocol: as §1

hemoglobin [4] = assay: Hemoglobin-binding capacity of haptoglobin (polyacrylamide gel thin layer electrophoresis, benzidine staining); details: maximum addition of hemoglobin with no free hemoglobin observed
mouse or rat and humans = assay: Toxicity / adverse effects on injection of the aqueous solution of haptoglobin; type: in vivo, human
patient = assay: Clinical application to a patient (pelvis fracture, urethra rupture and bleeding shock); type: in vivo, human
Excerpt: An example, in which the haptoglobin prepared in Example 2 was clinically applied to a patient, is illustrated below.
The patient was a person, who had been severely stricken on the left waist with lumber that had fallen down during their work and had been sent to hospital as an emergency case. The diagnosis was pelvis fracture, urethra rupture and bleeding shock. Immediately after hospitalization, the patient was subjected to an operation for urinary tract reconstruction. During the operation, the total amount of bleeding was 7,500 ml, the total amount of blood transfused was 4,200 ml, and the total artificial expander transfused was 4,200 ml. […] The clinical progress of the patient after the operation is shown in the accompanying drawing. […] At this stage, 250 ml of a 5% solution of the haptoglobin prepared according to the present invention in isotonic sodium chloride solution was administered to the patient drop-wise intravenously.

rabbits [5] = assay: Histopathological examination of rabbits after haptoglobin and/or hemoglobin administration; type: in vivo
Excerpt: (§2) Thirty mature rabbits of body weight ranging from 2.3 to 2.9 kg were equally divided into 3 groups (10 rabbits per group), and continuously administered with haptoglobin and/or hemoglobin, and then the survival of the rabbits was observed. At the end of the observation, the survived rabbits were anatomized, and various organs thereof were subjected to histopathological examination.
(§3) A 5% solution of haptoglobin in isotonic sodium chloride solution prepared according to the present invention was continuously administered drop-wise intravenously once a day at a dose of 0.8 g/kg (body weight).
(§4) A 10% solution of hemoglobin in isotonic sodium chloride solution isolated from red blood cells of the rabbit was continuously administered drop-wise intraveneously once a day at a dose of 0.4 g/kg (body weight).
(§5) Hemoglobin and then the haptoglobin of the invention were administered in the same manner and dose in the case of both the first and the second groups.

rabbits [6] = assay: Survival of rabbits after haptoglobin and/or hemoglobin administration; type: in vivo; details: fourth day, 10 tested
Excerpt: as §2, §3, §4, §5
On the fourth day of administration, the survival of the rabbits of each group was examined.

[7] = 250 ml of a 5% solution, drop-wise intravenously
[8] = First group: haptoglobin 0.8 g/kg i.v. once a day
[9] = Third group: hemoglobin 0.4 g/kg then haptoglobin 0.8 g/kg i.v. once a day
[10] = Second group: hemoglobin 0.4 g/kg i.v. once a day

Compound: C[C@H](N)C(=O)O [Alanine, alanine]
- Residual hemoglobin-binding capacity of haptoglobin after heat treatment (hemoglobin [1]; stabilizer amount 15%): 50%
- Residual hemoglobin-binding capacity of haptoglobin after heat treatment (hemoglobin [1]; stabilizer amount 20%): 75%
- Residual hemoglobin-binding capacity of haptoglobin after heat treatment (hemoglobin [2]; stabilizer amount 20%): 83%

Compound: OC[C@H]1OC(O)[C@H](O)[C@@H](O)[C@@H]1O (some centres unmarked) [Glucose, glucose]
- Residual hemoglobin-binding capacity of haptoglobin after heat treatment (hemoglobin [1]; stabilizer amount 15%): 45%
- Residual hemoglobin-binding capacity of haptoglobin after heat treatment (hemoglobin [1]; stabilizer amount 20%): 60%
- Residual hemoglobin-binding capacity of haptoglobin after heat treatment (hemoglobin [2]; stabilizer amount 20%): 72%

Compound: NCC(=O)O [Glycine, glycine]
- Residual hemoglobin-binding capacity of haptoglobin after heat treatment (hemoglobin [1]; stabilizer amount 2.25%): 20%
- Residual hemoglobin-binding capacity of haptoglobin after heat treatment (hemoglobin [1]; stabilizer amount 5%): 35%
- Residual hemoglobin-binding capacity of haptoglobin after heat treatment (hemoglobin [1]; stabilizer amount 10%): 70%
- Residual hemoglobin-binding capacity of haptoglobin after heat treatment (hemoglobin [1]; stabilizer amount 15%): 95%
- Residual hemoglobin-binding capacity of haptoglobin after heat treatment (hemoglobin [1]; stabilizer amount 20%): 95%
- Residual hemoglobin-binding capacity of haptoglobin after heat treatment (hemoglobin [2]; stabilizer amount 20%): 92%

Compound: OC[C@@H](O)[C@@H](O)[C@H](O)[C@H](O)CO [Mannitol, mannitol]
- Residual hemoglobin-binding capacity of haptoglobin after heat treatment (hemoglobin [1]; stabilizer amount 5%): 15%
- Residual hemoglobin-binding capacity of haptoglobin after heat treatment (hemoglobin [1]; stabilizer amount 7%): 40%
- Residual hemoglobin-binding capacity of haptoglobin after heat treatment (hemoglobin [1]; stabilizer amount 10%): 55%
- Residual hemoglobin-binding capacity of haptoglobin after heat treatment (hemoglobin [1]; stabilizer amount 15%): 80%
- Residual hemoglobin-binding capacity of haptoglobin after heat treatment (hemoglobin [1]; stabilizer amount 20%): 85%
- Residual hemoglobin-binding capacity of haptoglobin after heat treatment (hemoglobin [2]; stabilizer amount 20%): 85%

Compound: OC[C@@H](O)[C@@H](O)[C@H](O)[C@@H](O)CO [Sorbitol, sorbitol]
- Residual hemoglobin-binding capacity of haptoglobin after heat treatment (hemoglobin [2]; stabilizer amount 20%): 76%

Compound: OC[C@H]1O[C@@](CO)(O[C@H]2O[C@H](CO)[C@@H](O)[C@H](O)[C@H]2O)[C@@H](O)[C@@H]1O [Sucrose, sucrose]
- Residual hemoglobin-binding capacity of haptoglobin after heat treatment (hemoglobin [2]; stabilizer amount 20%): 68%

Compound: Example 1 before treatment: haptoglobin solution of Example 1 before the treatment with the ion exchanger
- Hypotensive activity [3]: 18%

Compound: Example 2 before treatment: haptoglobin solution of Example 2 before the treatment with the ion exchanger
- Hypotensive activity [3]: 12.0%

Compound: Example 2: sterile aqueous haptoglobin solution from Cohn fraction IV, heated with 20% mannitol, purified on GE Cellulose (guanidoethyl cellulose)
- LD50 (Mice): ≥ 12000 mg/kg
- LD50 (Rats): ≥ 10000 mg/kg
- HB-Ag (HB-Ag): Negative
- Hypotensive activity [3]: 6.0%
- Hemoglobin-binding capacity (hemoglobin [4]): 0.68 mg hemoglobin/mg haptoglobin

Compound: Example 3 before treatment: haptoglobin solution of Example 3 before the treatment with the ion exchanger
- Hypotensive activity [3]: 24.0%

Compound: Experiment 4: haptoglobin solution by the method of Example 1 with CM-cellulose, non-adsorbed fraction, 0.05 M phosphate buffer (pH 7.0)
- LD50 (Mice): ≥ 11700 mg/kg
- LD50 (Rats): ≥ 10500 mg/kg
- HB-Ag (HB-Ag): Negative
- Hypotensive activity [3]: 9.8%
- Hemoglobin-binding capacity (hemoglobin [4]): 0.61 mg hemoglobin/mg haptoglobin

Compound: Experiment 5: haptoglobin solution by the method of Example 1 with CM-Sephadex, non-adsorbed fraction, 0.05 M phosphate buffer (pH 7.0)
- LD50 (Mice): ≥ 11700 mg/kg
- LD50 (Rats): ≥ 10500 mg/kg
- HB-Ag (HB-Ag): Negative
- Hypotensive activity [3]: 9.0%
- Hemoglobin-binding capacity (hemoglobin [4]): 0.62 mg hemoglobin/mg haptoglobin

Compound: haptoglobin
- Adverse effect (mouse or rat and humans; 5% solution in isotonic sodium chloride, drop-wise intravenously, human adult): no adverse effect is observed at all
- Toxicity (mouse or rat and humans; injected in large quantities into mouse, rat, humans): extremely low
- Adverse effects on injection in large quantities (mouse or rat and humans; mouse or rat and humans): no adverse effects
- Amount of urine (patient; [7]): increase
- General symptoms of the patient (patient; [7]): gradually improved
- Time to disappearance of blood pigments from the urine (patient; 250 ml of a 5% solution, drop-wise intravenously, person): blood pigments disappeared from the urine within several hours after haptoglobin administration
- Adverse effect due to the administration (patient; even 6 months after recovery): No adverse effect
- Histopathology (rabbits [5]; First group: haptoglobin for 14 days): no change was observed in its kidney, spleen and lung, and only slight narrowing of sinusoid and deposition of iron were observed in the liver
- Prevention of renal troubles caused by hemoglobin; adverse effects (conclusion) (rabbits [5]; rabbits, Example 6): does not substantially bring about any adverse effects and has the excellent effect of preventing renal troubles caused by hemoglobin
- Number of dead (rabbits [6]; [8]): 0
- Number of survival (rabbits [6]; [8]): 10
- Number of dead (rabbits [6]; [9]): 1
- Number of survival (rabbits [6]; [9]): 9
- Hemoglobin-binding capacity after heat treatment in the absence of stabilizer (hemoglobin [1]; absence of stabilizer): lost its hemoglobin-binding capacity
- Activity of haptoglobin after heat treatment (hemoglobin [1]; aqueous solution without stabilizer, 60° C. for 10 hours): substantially nil
- Residual hemoglobin-binding capacity of haptoglobin after heat treatment (hemoglobin [1]; no stabilizer (None)): ≈ 0%
- Haptoglobin activity maintained after heat treatment (hemoglobin [1]; with stabilizer, 60° C. and 10 hours): 95%
- Residual hemoglobin-binding capacity of haptoglobin after heat treatment (hemoglobin [2]; no stabilizer (None)): 0%

Compound: hemoglobin
- Histopathology (rabbits [5]; Second group: hemoglobin for 6 days): marked deposition of iron was observed from proximal tuble to collecting tube of the kidney, thinning of renal epithelial cells was observed, propagation of reticular cells was observed in the spleen, and marked narrowing of sinusoid and deposition of iron were observed in the liver
- Number of dead (rabbits [6]; [10]): 7
- Number of survival (rabbits [6]; [10]): 3

Source: patent publication US4137307A, “Process for preparing haptoglobin aqueous solution using strong anion exchanger” (The Green Cross Corporation, priority 1973, dated 1979)
